According to PMC11952846, “The sterol-regulating human ARV1 binds cholesterol and phospholipids through its conserved ARV1 homology domain” (The Journal of Biological Chemistry, 2025):

T1: 6XHIS-ARV1 (full-length human ARV1, N-terminal 6XHIS tag) (human, UniProt Q9H2C2 1-271)
T1 construct: human ARV1, 271 amino acids, full length, expressed from pET-28a(+)-6XHIS-ARV1; also called hARV1; not shown: 6XHIS, N-terminal, kept
T1 sequence (looked up): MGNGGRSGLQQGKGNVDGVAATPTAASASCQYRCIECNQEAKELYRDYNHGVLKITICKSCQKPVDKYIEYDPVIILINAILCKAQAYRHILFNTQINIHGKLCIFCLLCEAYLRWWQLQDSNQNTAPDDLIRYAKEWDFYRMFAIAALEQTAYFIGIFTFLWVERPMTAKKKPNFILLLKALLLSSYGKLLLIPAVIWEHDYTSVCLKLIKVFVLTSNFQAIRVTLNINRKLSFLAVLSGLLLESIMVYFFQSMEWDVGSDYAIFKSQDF


Key:
[1] = molecular target: the molecule itself; assay: sucrose density gradient centrifugation; 2.5 to 25% sucrose gradient in PBS, 132,000g for 19 h; fractions by SDS-PAGE and western with anti-ARV1; markers ovalbumin (50 kDa), bovine serum albumin (77 kDa), phosphorylase (103 kDa)
[2] = molecular target: T1, 6XHIS-ARV1 (full-length human ARV1, …); assay: far-Western, overlay or dot blot; GST, GST-ARV1 truncations and 6XHIS-ARV1 dotted onto nitrocellulose, incubated with 6XHIS-ARV1 protein, probed with anti-6XHIS (and anti-GST) antibodies; details: both partners purified

Row | binding result [2] | Binder | stoichiometry N [1]
1 |  | E. coli expressed purified full-length ARV1 (sucrose density gradient) (natural protein, human, UniProt Q9H2C2 1-271, looked up, human ARV1, full length; detected with anti-ARV1 antibodies; also called purified ARV1; source: E. coli, purified) MGNGGRSGLQQGKGNVDGVAATPTAASASCQYRCIECNQEAKELYRDYNHGVLKITICKSCQKPVDKYIEYDPVIILINAILCKAQAYRHILFNTQINIHGKLCIFCLLCEAYLRWWQLQDSNQNTAPDDLIRYAKEWDFYRMFAIAALEQTAYFIGIFTFLWVERPMTAKKKPNFILLLKALLLSSYGKLLLIPAVIWEHDYTSVCLKLIKVFVLTSNFQAIRVTLNINRKLSFLAVLSGLLLESIMVYFFQSMEWDVGSDYAIFKSQDF | 2
2 | binds | GST-ARV1-N90 (domain or fragment, human, UniProt Q9H2C2 1-90, looked up, human ARV1, amino-terminal 90 amino acids, expressed from pGEX-4T1-GST-N90; also called GST-N90; source: E. coli BL21, purified (glutathione beads); not shown: GST, N-terminal, kept) MGNGGRSGLQQGKGNVDGVAATPTAASASCQYRCIECNQEAKELYRDYNHGVLKITICKSCQKPVDKYIEYDPVIILINAILCKAQAYRH | 
